According to US20240398899A1 (priority 2021, published 2024):

Columns and labels:
Experiment in all cases: Parkinson biomarker multiplex analysis/ELISA, MPP+ damaged SH-SY5Y
Format in all cases: cell-based, human
[1] = test system: Dopamine; conditions: MPP + Iodide (2 mM)
Procedure: (§1) After overnight incubation as in the previous examples, cells were treated with recombinant lectin protein having SEQ ID NO: 1 at different concentrations ranging from 0.001 μg/ml-1 μg/ml for 24 h for Parkinson disease and 0.01 μg/ml-25 μg/ml for 24 h for Alzheimer's disease. • Parkinson Disease: After 24 h of pre-treatment with recombinant lectin protein having SEQ ID NO: 1, cells were exposed (MPP+) for another 24 h. Cells treated with MPP+Iodide were included as Control. […] The cells treated with Galantamine were included as positive Control.
(§2) The levels of markers were determined by multiplex analysis as: Cell culture supernatants were diluted (1:2) with Calibrator Diluent. 50 μl of standard or sample was added per well. 50 μl of the microparticle cocktail was added to each well of the microplate and covered with a foil plate sealer. The plate was incubated for 2 hours at room temperature on a horizontal orbital microplate shaker. The plate was washed using a magnetic device designed to accommodate a microplate. Washing was done by applying the magnet to the bottom of the microplate, allowing 1 minute before removing the liquid, filling each well with wash buffer (100 μl) and allowing 1 minute before removing the liquid again. 50 μl of diluted Biotin-Antibody Cocktail was added to each well. Covered the plate with a foil plate sealer and incubated for 1 hour at room temperature on the shaker. Repeated the wash step. 50 μl of diluted Streptavidin-PE was added to each well. The plate was securely covered with a foil plate sealer and incubated for 30 minutes at room temperature on the shaker. Repeated the wash step. The microparticles were resuspended by adding 100 μl of Wash Buffer to each well. The plate was incubated for 2 minutes on the shaker and read within 90 minutes using Magpix® multiplex machine. Levels of biomarkers for Parkinson's and Alzheimer's disease were estimated using Magpix® multiplex machine.
(§3) For Parkinson's the percent modulation in each sample was determined as follows:
(§4) [{Concentration of biomarkers(pg/ml) in SEQ ID NO:1+MPP+Iodide treated cells)−Concentration of biomarkers(pg/ml) in Control cells(MPP+Iodide alone treated)}/Concentration of biomarkers(pg/ml) in Control cells(MPP+Iodide alone treated)]*100

[2] = test system: ICAM1/CD54; conditions: MPP + Iodide (2 mM)
Procedure: as §1, §2, §3, §4

[3] = test system: Serotonin; conditions: MPP + Iodide (2 mM)
Procedure: as §1, §2, §3, §4

[4] = test system: Park7/DJ-1; conditions: MPP + Iodide (2 mM)
Procedure: as §1, §2, §3, §4

[5] = test system: S100b; conditions: MPP + Iodide (2 mM)
Procedure: as §1, §2, §3, §4

[6] = test system: α-Synuclein; conditions: 0.001 μg/mL to 1 μg/mL, MPP+ iodide
Procedure: as §1, §2, §3, §4

[7] = test system: Calbindin D; conditions: MPP + Iodide (2 mM)
Procedure: as §1, §2, §3, §4

B1: SEQ ID NO: 1: variant of the S. rolfsii lectin amino acid sequence (reported as Rec-2 in WO2010/095143) (protein)
chain: TYKITVRVYQTNPDAFFHPVEKTVWKYANGGTWTITDDQHVLTMGGSGTSGTLRFHADNGESFTATFGVHNYKRWCDIVTNLAADETGMVINQQYYSQKNREEARERQLSNYQVKNAKGRNFQIVYTEAEGNDLHANLIIG
% Change of Biomarkers markers (with respect to Control) Dopamine ([1]; 0.001 μg/mL): 50.6%
% Change of Biomarkers markers (with respect to Control) Dopamine ([1]; 0.01 μg/mL): 82.5%
% Change of Biomarkers markers (with respect to Control) Dopamine ([1]; 0.05 μg/mL): 24.7%
% Change of Biomarkers markers (with respect to Control) Dopamine ([1]; 0.1 μg/mL): 28.9%
% Change of Biomarkers markers (with respect to Control) Dopamine ([1]; 1 μg/mL): 22.9%
% Change of Biomarkers markers (with respect to Control) ICAM1/CD54 ([2]; 0.001 μg/mL): 0%
% Change of Biomarkers markers (with respect to Control) ICAM1/CD54 ([2]; 0.01 μg/mL): −6.2%
% Change of Biomarkers markers (with respect to Control) ICAM1/CD54 ([2]; 0.05 μg/mL): −28.1%
% Change of Biomarkers markers (with respect to Control) ICAM1/CD54 ([2]; 0.1 μg/mL): −36.3%
% Change of Biomarkers markers (with respect to Control) ICAM1/CD54 ([2]; 1 μg/mL): −41.3%
% Change of Biomarkers markers (with respect to Control) Serotonin ([3]; 0.001 μg/mL): 15.4%
% Change of Biomarkers markers (with respect to Control) Serotonin ([3]; 0.01 μg/mL): 5.1%
% Change of Biomarkers markers (with respect to Control) Serotonin ([3]; 0.05 μg/mL): 6.9%
% Change of Biomarkers markers (with respect to Control) Serotonin ([3]; 0.1 μg/mL): 7.9%
% Change of Biomarkers markers (with respect to Control) Serotonin ([3]; 1 μg/mL): 23.5%
% Change of Biomarkers markers (with respect to Control) Park7/DJ-1 ([4]; 0.001 μg/mL): −2.5%
% Change of Biomarkers markers (with respect to Control) Park7/DJ-1 ([4]; 0.01 μg/mL): −3.6%
% Change of Biomarkers markers (with respect to Control) Park7/DJ-1 ([4]; 0.05 μg/mL): −7.1%
% Change of Biomarkers markers (with respect to Control) Park7/DJ-1 ([4]; 0.1 μg/mL): −10.4%
% Change of Biomarkers markers (with respect to Control) Park7/DJ-1 ([4]; 1 μg/mL): −12.6%
% Change of Biomarkers markers (with respect to Control) S100b ([5]; 0.001 μg/mL): −11%
% Change of Biomarkers markers (with respect to Control) S100b ([5]; 0.01 μg/mL): 9%
% Change of Biomarkers markers (with respect to Control) S100b ([5]; 0.05 μg/mL): −6.7%
% Change of Biomarkers markers (with respect to Control) S100b ([5]; 0.1 μg/mL): −6.5%
% Change of Biomarkers markers (with respect to Control) S100b ([5]; 1 μg/mL): −11.4%
modulation of α-Synuclein [6]: no significant modulation
% Change of Biomarkers markers (with respect to Control) Calbindin D ([7]; 0.001 μg/mL): 9.7%
% Change of Biomarkers markers (with respect to Control) Calbindin D ([7]; 0.01 μg/mL): 8.2%
% Change of Biomarkers markers (with respect to Control) Calbindin D ([7]; 0.05 μg/mL): 1.7%
% Change of Biomarkers markers (with respect to Control) Calbindin D ([7]; 0.1 μg/mL): 6.6%
% Change of Biomarkers markers (with respect to Control) Calbindin D ([7]; 1 μg/mL): −1.6%
